Key:
SARS-CoV-2病毒N蛋白(全长) [1] = biological target: T1, SARS-CoV-2病毒N蛋白(全长) (SARS-CoV-2, UniProt P0DTC9 1-419)
SARS-CoV-2病毒N蛋白(全长) [2] = biological target: T1, SARS-CoV-2病毒N蛋白(全长); test: SPR (Biacore X100), antibody captured as ligand, N protein as analyte
MERS-CoV N蛋白 = MERS-CoV N蛋白 (MERS-CoV, UniProt K9N4V7 1-411); test: SPR (Biacore X100), antibody captured as ligand, MERS-CoV N protein as analyte
SARS-CoV N蛋白 = SARS-CoV N蛋白 (SARS-CoV, UniProt P59595 1-422); test: SPR (Biacore X100), antibody captured as ligand, SARS-CoV N protein as analyte

| Binder | EC50 (SARS-CoV-2病毒N蛋白(全长) [1]) | also measured |
| --- | --- | --- |
| nCoV396 (antibody, V domains shown) VH: QVQLVESGGGVVQPGRSLRLSCAASGFTFSSYIMHWVRQAPGKGLEWVAVISYDGSNEAYADSVKGRFTISRDNSKNTLYLQMSSLRAEDTGVYYCARETGDYSSSWYDSWGRGTLVTVSS VL: QLVLTQSPSASASLGASVKLTCTLSSGHSNYAIAWHQQQPEKGPRYLMKVNSDGSHTKGDGIPDRFSGSSSGAERYLTISSLQSEDEADYYCQTWGTGIQVFGGGTKLTVL | 3.2 ng/mL | Kd (SARS-CoV-2病毒N蛋白(全长) [2]): 1.02 nM; Kd (MERS-CoV N蛋白): 7.43 nM; Kd (SARS-CoV N蛋白): 7.44 nM |
| nCoV402 (antibody, V domains shown) VH: QVQLVESGGGVVQPGGSLRLSCAASGFTFSRFTMHWVRQAPGKGLEWVAIISFNGSDKLYVDSVKGRFTVSRDSSKEMLYLQMSSLRHEDTAVYYCARETEDYTSSYFDYWGQGTLVTVSS VL: QLVLTQSPSASASLGASVKLTCTLSSGHNNYAIAWHQQQPQTGPRFLMKVNSDGSHVKGDGIPDRFTGSSSGTGRYLTISSLQSEDEADYYCQTWASGIQVFGGGTKLTVL | 6.3 ng/mL | – |
| nCoV457 (antibody, V domains shown) VH: QVQLVESGGGVVQPGRSLRLSCVASGFTFSRYIIHWVRQAPGKGLEWVAVISYDGTAALYADTVKGRFTISRDNSKNTLYLQMNSLRADDTAVYYCARETGEMSTSYFEYWGQGTLVTVSS VL: QLVLTQSPSASASLGASVKLTCTLSSRHNNYAIAWHQQQPEKGPRFLMKVNSDGSHTKGDGIPDRFSGSSSGAERYLTISSLQSDDEADYYCQTWGTGNQVFGGGTKVTVL | 2.6 ng/mL | – |
| nCoV433 (antibody, V domains shown) VH: QVQLVESGGGVVQPGRSLRLSCAASGFTFSNYAMHWVRQAPGKGLEWVTIISYDGTNIYEDSVKGRFTISRDNSKNTLYLQMNSLRAEDTAVYYCAREVFDSSGSWFDYWGQGTLVTVSS VL: QLVLTQSPSASASLGASVRLTCSLSSGHRNYAIAWHQQQPEKGPRYLMKLNSDGSHTKGDGVPDRFSGSSSGAERYLTISSLQSEDEADYYCQTWGTGIQVFGGGTKVTVL | 5.3 ng/mL | – |
| nCoV425 (antibody, V domains shown) VH: QVQLVESGGGVVQPGRSLRLSCAASGFTFSNYAMHWVRQPPGKGLEWVAIISYEGRTEYADSMKGRFTISRDNSKSAVYLQMNSLRPEDTAVYYCAREVFDISGSWFDYWGQGTLVTVSS VL: QLVLTQSPSASASLGASVKLTCTLSSRHSNYAIAWHQQQPEKGPRYLMKLNSDGSHTKGDGIPDRFSGSSSGAERYLTISSLHSEDEADYYCQTWGTGIQVFGGGTKVTVV | 5.2 ng/mL | – |
| nCoV416 (antibody, V domains shown) VH: QVQLVQSGAVLKRPGASVKLSCKASGYIFTSYHIHWVRQAPGQGLEWLGTINPRGDVTAYAQKFQGRVSLTRDTSTTTVYMELSSLRSEDTAIYYCAREHGDVSSSVFDHWGQGTLVSVSS VL: QLVLTQSPSASASLGASIKLTCTLSSGHSNYAIAWHKQQPEKGLRYLMKVNSDGSHNKGDGIPDRFSGSSSGPERYLIISSLQSDDEADYHCQTWASGIQVFGGGTKLTVL | 3.3 ng/mL | – |
| nCoV424 (antibody, V domains shown) VH: QVQLVQSGAEVKKPGASVKLSCKASGYTFSSYYIHWVRQAPGQGLEWLGIINPGGDITAYAQKFQGRVSLTRDTSTSTVYMQLSSLRYEDTAVYYCAREEGDVSTSVFDNWGQGTLVTVSS VL: QLVLTQSPSASASLGASIKLTCTLSSGHRSYAIAWHQQQPGKGPRYLMKLNSDGSHIKGDGVPDRFSGSSSGAERYLSISSLQSEDEADYHCQTWGTGIQVFGGGTRLTVL | 11.8 ng/mL | – |
| nCoV454 (antibody, V domains shown) VH: QVQLVESGGGVVQPGGSLRLSCVTSGFTFSNYAMHWVRQAPGKGLEWVAIISYDGSHLYGDSVKGRFTISRDNSKNTLYLEMSSLRNEDTATYYCARETPEVSGSWIDYWGQGALVIVSS VL: QLVLTQSPSASASLGASVNLTCTLTSGHNSYAIAWHQQQPNKGPRYLMKLNSDGSHDKGDGIPDRFSGSSSGTERYLTISSLQSEDEADYYCQTWGTGVQVFGGGTKLTVL | 5 ng/mL | – |
| nCoV400 (antibody, V domains shown) VH: EVQLLESGGGLVQPGGSLRLSCAASGFTFSSYAMSWVRQAPGKGLEWVSVIYSGGSSTYYADSVKGRFTISRDNSKNTLYLQMNSLRAEDTAVYYCAKDHLELSAAGSQINYYYYGMDVWGQGTTVTVSS VL: SYELTQPPSVSVSPGQTARITCSGDALPKQYAYWYQQKPGQAPVLVIYKDSERPSGIPERFSGSSSGTTVTLTISGVQAEDEADYYCQSADSSGTSHWVFGGGTKLTVL | 1110 ng/mL | – |
